From PMC2172305

Biological target: Crk (UniProt P46108)
Experiment: anti-Flag co-IP, anti-HA blot
Conditions: reference: cells infected with noninvasive Shigella; sites Y421,Y466,Y482

fold change: stronger; reference 1
Substance: cortactin (from UniProt Q60598) cells infected with invasive Shigella
